Assay results taken from patent US20250136702A1 (NONA BIOSCIENCES SUZHOU, published 2025).

T1: human LIFR expressed on the surface of 293T cells (human, UniProt P42702 45-1097)
T1 construct: whole, on cells; also called HEK293T-huLIFR; huLIFR
T1 sequence (looked up): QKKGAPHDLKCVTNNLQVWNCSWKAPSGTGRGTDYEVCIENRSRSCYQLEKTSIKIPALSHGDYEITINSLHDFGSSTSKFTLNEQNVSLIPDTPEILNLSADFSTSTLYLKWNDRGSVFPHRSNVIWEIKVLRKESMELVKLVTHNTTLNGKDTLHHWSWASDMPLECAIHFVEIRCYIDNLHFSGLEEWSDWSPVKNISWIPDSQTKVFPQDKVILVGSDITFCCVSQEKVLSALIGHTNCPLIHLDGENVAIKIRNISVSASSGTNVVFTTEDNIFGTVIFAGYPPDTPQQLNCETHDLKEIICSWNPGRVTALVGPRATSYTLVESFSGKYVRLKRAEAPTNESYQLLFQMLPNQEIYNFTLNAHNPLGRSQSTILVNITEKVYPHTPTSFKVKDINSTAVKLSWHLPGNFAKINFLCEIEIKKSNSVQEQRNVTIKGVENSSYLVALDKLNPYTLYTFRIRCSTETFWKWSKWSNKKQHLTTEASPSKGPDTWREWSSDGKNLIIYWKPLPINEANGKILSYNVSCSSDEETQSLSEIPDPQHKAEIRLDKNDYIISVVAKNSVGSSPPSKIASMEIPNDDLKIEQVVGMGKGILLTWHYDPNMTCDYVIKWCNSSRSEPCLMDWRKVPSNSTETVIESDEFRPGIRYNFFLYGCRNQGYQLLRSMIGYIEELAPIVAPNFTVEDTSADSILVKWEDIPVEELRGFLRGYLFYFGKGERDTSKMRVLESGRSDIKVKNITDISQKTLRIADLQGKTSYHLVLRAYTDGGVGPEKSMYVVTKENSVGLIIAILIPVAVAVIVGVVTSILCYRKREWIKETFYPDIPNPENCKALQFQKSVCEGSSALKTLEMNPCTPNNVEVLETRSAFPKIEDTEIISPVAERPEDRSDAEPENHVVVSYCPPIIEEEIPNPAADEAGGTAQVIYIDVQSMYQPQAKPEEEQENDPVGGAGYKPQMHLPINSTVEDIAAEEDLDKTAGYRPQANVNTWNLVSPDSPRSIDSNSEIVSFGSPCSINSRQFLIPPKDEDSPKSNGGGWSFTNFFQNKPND

T2: mouse LIFR-ECD protein (mouse, UniProt P42703 44-828)
T2 construct: extracellular domain
T2 sequence (looked up): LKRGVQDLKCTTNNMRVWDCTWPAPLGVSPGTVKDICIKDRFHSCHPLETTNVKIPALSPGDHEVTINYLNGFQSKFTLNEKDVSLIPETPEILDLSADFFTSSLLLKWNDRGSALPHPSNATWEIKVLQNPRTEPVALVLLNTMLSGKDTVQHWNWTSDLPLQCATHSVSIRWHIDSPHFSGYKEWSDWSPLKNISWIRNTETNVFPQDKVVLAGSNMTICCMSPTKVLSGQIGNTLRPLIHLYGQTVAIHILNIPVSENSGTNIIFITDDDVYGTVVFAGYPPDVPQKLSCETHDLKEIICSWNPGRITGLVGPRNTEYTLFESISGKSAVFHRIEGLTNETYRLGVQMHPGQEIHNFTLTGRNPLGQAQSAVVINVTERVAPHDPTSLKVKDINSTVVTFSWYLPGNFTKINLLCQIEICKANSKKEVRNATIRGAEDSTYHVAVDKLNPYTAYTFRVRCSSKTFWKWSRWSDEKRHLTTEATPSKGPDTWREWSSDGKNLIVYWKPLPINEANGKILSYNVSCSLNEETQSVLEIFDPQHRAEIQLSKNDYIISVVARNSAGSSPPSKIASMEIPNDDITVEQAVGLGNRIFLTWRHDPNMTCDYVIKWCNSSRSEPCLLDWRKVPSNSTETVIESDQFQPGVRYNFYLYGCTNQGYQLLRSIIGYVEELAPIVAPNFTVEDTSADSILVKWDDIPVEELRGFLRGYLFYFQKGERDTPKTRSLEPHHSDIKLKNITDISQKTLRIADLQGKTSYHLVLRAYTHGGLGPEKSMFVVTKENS


Experiments:
[1] = biological target: T1, human LIFR expressed on the surface of …; assay: flow cytometry on HEK293T-huLIFR cells, median fluorescence, span of the fitted curve
[2] = biological target: T3, human LIFR/gp130 heterodimer expressed on the surface of 293T cells (human, UniProt P42702 45-1097; P40189 23-918); assay: flow cytometry on HEK293T-huLIFR/gp130 cells, median fluorescence, span of the fitted curve
T3 construct: whole, on cells; also called HEK293T-huLIFR/gp130; huLIFR/gp130

mouse LIFR-ECD protein = biological target: T2, mouse LIFR-ECD protein; assay: ELISA on plate-coated mouse LIFR-ECD (1 ug/mL), anti-human IgG Fc-HRP, OD450nm
Method: The binding ability of the 15 antibodies prepared in examples 1-4 of the present invention to the LIFR-ECD protein was detected based on the ELISA assay method. The binding affinity of different antibodies was determined by comparing their dose response binding curves to LIFR-ECD protein. The specific experimental process is as follows: First, human LIFR-ECD, monkey LIFR-ECD and mouse LIFR-ECD proteins are diluted to a concentration of 1 μg/mL, added to a 96-well plate (100 μL per well) and placed at 4° C. overnight. The 96-well plates were washed three times with PBST solution and then placed at 37° C. for 1 h with the addition of 2% BSA in PBS solution. Antibody seris dilution is prepared and (100 nM, 10-fold-dilution), added to a 96-well plate and incubate at 37° C. for 1 h. After washing three times with PBST solution, add anti-human IgG Fc-HRP secondary antibody (for 5000× dilution) and incubate at 37° C. for 30-60 min. After washing three times with PBST solution, add TMB color development solution for 5-15 minutes, and then add termination solution to ternimate the color development.

T3 sequence (P40189 23-918, one chain of several): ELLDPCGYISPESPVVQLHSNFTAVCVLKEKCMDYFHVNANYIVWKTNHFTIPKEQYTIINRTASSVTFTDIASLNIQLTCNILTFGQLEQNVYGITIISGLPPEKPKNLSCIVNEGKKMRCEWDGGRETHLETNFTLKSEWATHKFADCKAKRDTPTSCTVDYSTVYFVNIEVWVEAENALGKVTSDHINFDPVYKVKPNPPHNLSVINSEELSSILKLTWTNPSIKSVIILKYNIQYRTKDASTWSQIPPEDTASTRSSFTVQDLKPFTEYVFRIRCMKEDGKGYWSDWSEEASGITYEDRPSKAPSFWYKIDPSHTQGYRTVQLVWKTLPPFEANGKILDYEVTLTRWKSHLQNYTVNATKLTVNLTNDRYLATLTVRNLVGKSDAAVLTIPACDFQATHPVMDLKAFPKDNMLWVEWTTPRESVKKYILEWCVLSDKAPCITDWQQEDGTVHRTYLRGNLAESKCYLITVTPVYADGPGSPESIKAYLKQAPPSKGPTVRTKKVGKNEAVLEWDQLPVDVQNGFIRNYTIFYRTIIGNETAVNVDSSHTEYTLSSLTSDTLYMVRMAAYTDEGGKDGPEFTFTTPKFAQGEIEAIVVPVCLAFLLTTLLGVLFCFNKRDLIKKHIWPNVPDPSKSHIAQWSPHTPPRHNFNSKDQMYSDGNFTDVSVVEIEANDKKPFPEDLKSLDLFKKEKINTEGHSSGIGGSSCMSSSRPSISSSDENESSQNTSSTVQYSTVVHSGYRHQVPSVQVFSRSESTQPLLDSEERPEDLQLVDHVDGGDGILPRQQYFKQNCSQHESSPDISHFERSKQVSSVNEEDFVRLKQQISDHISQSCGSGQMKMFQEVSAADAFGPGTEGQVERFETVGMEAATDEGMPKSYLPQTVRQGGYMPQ

Binder | Span [1] | Span [2] | binding result (mouse LIFR-ECD protein)
PR300516 (antibody, human IgG1, kappa, V domains shown) VH: QVQLVESGGGVVQPGRSLRLSCAASGFTFSSYGMHWVRQAPGKGLEWVAVIWYDGNNKYYADSVKGRFTISRDNSKNTLYLQMNSLRAEDTAVYYCARDGESSMVRGLLNWFDPWGQGTLVTVSS VL: not shown | 19800 | 6880 | no binding (tested: 100 nM)
PR301176 (antibody, IgG1, V domains shown) VH: QVQLVESGGGVVQPGRSLRLSCAASGFTFSSYGMDWVRQAPGKGLEWVAVIWYDGSNKFYADSVRGRFTISRDNSQNTLYLQMNSLRAEDTAVYYCARELWFGELLSPFDFWGQGTLVTVSS VL: not shown |  |  | no binding (tested: 100 nM)
PR301152 (antibody, IgG1, V domains shown) VH: QVQLVESGGGVVQPGRSLRLSCAASGFTFSSYGMDWVRQAPGKGLEWVAVIWYDGSNKYYADSVKGRFTISRDNSKNTLYLQMNSLRAEDTAVYYCARELWFGELLSPFDFWGQGTLVTVSS VL: KIVLTQSPGTLSLSPGGRATLSCRASQSISSSYLAWYQQKPGQAPRLLIYAASNRATGIPDRFSGSGSGTDFTLTISRLEPEDFAVYYCQQYGSSPFTFGPGIKVDIKR | 20100 | 7210 | no binding (tested: 100 nM)
PR301168 (antibody, IgG1, V domains shown, also called PR3001168) VH: QVQLVESGGGVVQPGRSLRLSCAASGFTFSSYGMDWVRQAPGKGLEWVAVIWYDGSNKFYADSVRGRFTISRDNSQNTLYLQMNSLRAEDTAVYYCARELWFGELLSPLDFWGQGTLVTVSS VL: not shown | 19400 | 6950 | no binding (tested: 100 nM)
PR301177 (antibody, human IgG1, kappa, V domains shown) VH: QVQLVESGGGVVQPGRSLRLSCVASGFTFSSYGMNWVRQAPGKGLDWVTVIWFDGSNKYYADSVKGRFTISRDNSKNTLYLQMNSLRAEDTAMYYCARGERTLDLWGQGTLVTVSS VL: DIQMTQSPSTLSASVGDRVTITCRASQSISSWLAWYQQKPGKAPKLLIYKASSLESGVPSRFSGSGSGTEFSFTISSLQPDDFATYYCQQYKSFSPGGLTFGGGTKVEIKR |  |  | no binding (tested: 100 nM)
PR301127 (antibody, human IgG1, kappa, V domains shown) VH: EVQLLQSGGGLVQPGGSLRLSCAASGFTFSNYAMTWVRQAPGKGLEWVSTISGSGAFTYYADAVKGRFTISRVNSKNSLDLQMNSLRAEDTAVYYCAKGGILTGFDNWGQGTLVTVSS VL: DIQMTQSPSTLSASVGDRVTITCRASQSISSWLAWYQQKPGKAPKLLIYKASSLESGVPSRFSGSGSGTEFSFTISSLQPDDFATYYCQQYKSFSPGGLTFGGGTKVEIKR |  | 55.6 | 
PR301215 (antibody, human IgG1, kappa, V domains shown) VH: QVQLVESGGGVVQPGRSLRLSCAASGFTFSSYGMHWVRQAPGKGLEWVAVIWFDGSIKYYADSVKGRFTISRDNSKNTLYLQMNSLRAEDTAIYYCARGQLVQDFWGRGTLVTVSS VL: DIQMTQSPSTLSASVGDRVTITCRASQSISSWLAWYQQKPGKAPNLLMYKASNLESGVPSRFSGSGSGTEFTLTITSLQPDDFASYYCQQYKSNPLTFGGGTKVEIKR |  |  | no binding (tested: 100 nM)
PR301211 (antibody, human IgG1, kappa, V domains shown) VH: QVQLVESGGGVVQPGRSLRLSCAASGFTFSSYGMHWVRQAPGKGLEWVAVIWFDGSLKYYADSVKGRFAISRDNSKNTLYLQMNSLRAEDTAIFYCARGQLVQDLWGRGTLVTVSS VL: DIQMTQSPSTLSASVGDRVTITCRASQSISSWLAWYQQKPGKAPNLLMYKASNLESGVPSRFSGSGSGTEFTLTITSLQPDDFASYYCQQYKSNPLTFGGGTKVEIKR | 15900 | 5800 | 

More lines, now with the values ahead:

Span [1] | Span [2] | binding result (mouse LIFR-ECD protein) | Binder
 |  | no binding (tested: 100 nM) | PR301153 (antibody, IgG1, V domains shown) VH: QGQLVESGGGVVQPGRSLRLSCAASGFTFSSYGMHWVRQPPGKGLEWVAVIWFDGSNKYYADSVKGRFTISRDNSKNTVYLQMDSLRDEDTAVYYCARGQLVGDYWGQGTLVTVSS VL: not shown
 |  | no binding (tested: 100 nM) | PR301195 (antibody, human IgG1, kappa, V domains shown) VH: QVQLVESGGGVVQPGRSLRLSCAASGFTFSSYGMNWVRQAPGKGLEWVAVIWFDGSIKYYADSVKGRFTISRDNSKNTLYLQMNSLRAEDTAIYYCARGQLVQDFWGRGTLVTVSS VL: DIQMTQSPSTLSASVGDRVTITCRASQSISSWLAWYQQKPGKAPNLLMYKASNLESGVPSRFSGSGSGTEFTLTITSLQPDDFASYYCQQYKSNPLTFGGGTKVEIKR
 |  | no binding (tested: 100 nM) | PR301218 (antibody, human IgG1, kappa, V domains shown) VH: QVQLVESGGGVVQPGRSLRLSCAASGFTFSSYGMHWVRQAPGKGLEWVAVIWFDGSVKYYADSVKGRFTISRDNSKNTLYLQMNSLRAEDTAIYYCARGQLVQDFWGRGTLVTVSS VL: DIQMTQSPSTLSASVGDRVTITCRASQSISSWLAWYQQKPGKAPNLLMYKASNLESGVPSRFSGSGSGTEFTLTITSLQPDDFASYYCQQYKSNPLTFGGGTKVEIKR
 |  | no binding (tested: 100 nM) | PR301196 (antibody, human IgG1, kappa, V domains shown) VH: QVQLVESGGGVVQPGRSLRLSCAASGFTFSSYGMNWVRQAPGKGLEWVAVIWFDGSIKYYADSVKGRFTISRDNSKNTLYLQMNSLRAEDTAIYYCARGQLVQDFWGRGTLVTVSS VL: DIQMTQSPSTLSASVGDRVTITCRASQSISSWLAWYQQKPGKAPNLLMYKASNLENGVSSRFSGSGSGTEFTLTITSLQPDDFATYYCQQYKSNPLTFGGGTKVEIKR
